Assay results as given in the DeepSol protein solubility set.

Experiment: soluble on expression in E. coli; label from the status in PepcDB or PDB records

| Sequence | soluble on expression in E. coli |
| --- | --- |
| MKIVAVTACPTGIAHTYMAADALMKAAPKHNVQIKVETQGAMGIENQLTPHDIAQADRVLIVSDIEIEQPGRFEGTRKIQIPIEEVLLNVDKVFLVHCRD | soluble |
| MKIVTTVQEMQHITKELRASGKSIGFVPTMGYLHEGHATLLRKAREENEIVVLSVFVNPLQFGPNEDLDRYPRDIDRDENVAKENGVDYLFYPSVEEMYPAEQTTTVEVVKRTDVLCGKQRPGHFAGVATVLMKLFNITLPTRAYFGMKDAQQVAVIEGFVADFNIPVIIVPVDIVREEDGLAKSSRNVYLSQKERKEAPHLYRSLCMAKERIEAGERNAEIITTLVKEYIETYTKGTVDYADLYAYPSLQVVDQIEGRIILAIAVKFENVRLIDNITLTVK | not soluble |
| MKIYTRTGDAGETGLYGAERVVKAHPRVEAYGTVDEANSAIGLARSLLPGKHRDLHDLLERLQNALFDLGADLATRMGSPYEKNIARMDAEDVRALEEAIDRYQEESPPFQGFILPGGHPAAAALHLARTVVRRAERKAVALSREEPVNPEVIRYLNRLSDLLFVLARVVNAREGIKEEGWLVKKRR | soluble |
| MKKAKKEKKEKIIKPDGPINFNRSIMAAFEKQSRGKICPLCETKFSLASYKSHMNTCNVADDDEEIEVIATYTRDEAILMRAGPEIILGDASFSDKSENPTKRRKTDEREVPSEDDIVPEVPGPSGIVKNHEMPSESLDVTEISENIEKVIKKSPEWINHRRRSSRLLQNSQKDQADNANKEDPVKKETATISEVLQAIERFEQRVSGPEQTWPYYIKITIKIMKRVISTEKFDGTFYADDFWLPSDIITFYRFVELLSEGAKCLLVRLFIRKPAWYNLEKLEQKYPEIPNIKEAVSELAKGHFIDDDSSMKTLDEALQISDVVALKNVTKKFKLDGTKNRQELIQSLRKFAQSQQSIFGGTGNVEKSILKSLKQELGPCVRVRGGFVDLFKCLFTIYCPVTTNSANVIDNPSTTNVYQDLLYLMLSVANGTVQFPAPNPCPIIASFYKNRNMLQDYMISKSLEIAIVSQMSNGNLDAALDLAIDAKEFIEQMSDDDKRYYESLEIHERKFTSIWVFTRCCGHASSILERQKKYGMAVEWQKDLLITNKDIQSYCIDSRGIWWDRMLLNLDSHLKEKKECAKMIQIALQDPSILEKELLMIQDRALKLKEMPADFVTPINIGNPEKKTITANVITKSLGDGRINRFMIRDHETDDDVECSVEEVTRRHYLENEGFSTGVHDEGSTWHTLFGLFFYDVIFATDESVESTWLSELQDCPSDLSNTLYSKRKEKFEDRFVWLEEAEQELIEENIRKIWDLKHNETNRECSWKQFPMGAEDCVSFFQCIPRPALILILRRLAENYRNSRSGFPDLTLWNPETKRVAVVEVKGPGDRLSTKQRLWLAIFADSGIRAEVCHVAAQNSRLLV | not soluble |
| MKKDIFYCEQWSYGYKKLHKPFSEKQAEEKHLKGELYTAVIGSATQPEYVITLREEVGFFSVHFFDKFGRDYLTHQFQKYSNSNYYFLSMAVWRDYITLESHDLAEGYTYFFNENTDDCYVLKEDFINNERYEKTELYSQKDKVILFPKFGEYDLVLNPDII | not soluble |
| MKKFCLSYSSGKDCLLAMDRLVQAGNQPVALVTTLSDEINRSWFHGIPISVLEAAAEALDLPLVISHNNETNYTEKVVEALQETKKLGAETVCFGDIDIEQNGAWDRQVALSAGLEPQLPLWQENREALVKEFLAKGYTAIIKTVSKEAGIPIKFLGEPLNETFITYLKEHQLDICGENGEYHTLVIDGPLFKKRLNYYTSGIYESPYAYSLIIDA | not soluble |
| MKKIITLFGACALAFSMANADVNLYGPGGPHTALKDIANKYSEKTGVKVNVNFGPQATWFEKAKKDADILFGASDQSALAIASDFGKDFNVSKIKPLYFREAIILTQKGNPLKIKGLKDLANKKVRIVVPEGAGKSNTSGTGVWEDMIGRTQDIKTIQNFRNNIVAFVPNSGSARKLFAQDQADAWITWIDWSKSNPDIGTAVAIEKDLVVYRTFNVIAKEGASKETQDFIAYLSSKEAKEIFKKYGWREH | soluble |
| MKKINAIILLSSLTSASVFAGAYVENREAYNLASDQGEVMLRVGYNFDMGAGIMLTNTYNFQREDELKHGYNEIEGWYPLFKPTDKLTIQPGGLINDKSIGSGGAVYLDVNYKFVPWFNLTVRNRYNHNNYSSTDLSGELDNNDTYEIGTYWNFKITDKFSYTFEPHYFMRVNDFNSSNGKDHHWEITNTFRYRINEHWLPYFELRWLDRNVEPYHREQNQIRIGTKYFF | soluble |
| MKKPTSAPRSKAFGKQRRKTREELNQEARDRKRLKKHRGHAPGSRAAGGNSASGGGNQNQQKDPRIGSKTPVPLGVTEKVTQQHKPKSEKPMLSPQAELDLLETDERLDALLERLEAGETLSAEDQAWVDAKLDRIDELMQKLGLSYDDDEEDDEEDEKQEDMMRLLRGGN | not soluble |
| MKKQKLSGAEGFESYYLSIFGERWQSLKAALLEERKPEAYSENLIQNYYLDYASIQAARAMPVLEEGSCLDMCAAPGGKTLVLLSRIKENAEIQANELSADRRNRLIRVLDEHLSEETRKRIRVSSYDASRMPRYGQELYDRILLDAPCSSERHVLQNEKYLKQWTEARIKNLSQRQWALLSAAFLLLKPKGFLVYSTCALADEENDFLIEKLIKKYKEKVRLEEKLDGLGPISPEKTRYGFRFLPDKAEGAGPIYFSLIQKN | not soluble |
| MKKRFIYHDEKSNKFWWIDYEGDSLAVNYGKVGSIGKFQTKEFDNEEQCLKEASKLIAAKMKKGYQEDPKFNFMDRYYFDDEEIGLHVKTSHPNFQCHFTDPLYMCCWDEESPFGSDEGADALNVLENSLRKEPDLDCADFPQMLIETMWGMKYIAMDSILEEDVRAQLLVDEMSTIQSNMITYATAFGQIKVMGKISHKLKKMGLNALARHQLTAKILQWGDGQDSPILQKMIDDLTAFPHENLEHHHHHH | soluble |
| MKKSPKISLILEAFQNLEKAYVDLKKNLEIPKEEFVKNKLVQDRVRIDFNLAFESTMRVCRHLSAVYGVKTSSRDCLPKIAEHIGLPFADRLKKFSEFYFRYRDLKDTVSPEELYDFLKENLVLFKEFARGVVEYIKKTTGNYLLIDFDLLNEKAKFIKDSVKKIDFVLSQGEEEFKKTPMYYDRVKYFYQVAYDSLFDICKHLAPKFGIKKFGDDCLTKMVEKGVIPPEYYETVLKMTLLKNKLISTWEVSPEELYRSLKELNDKFIPVLREISKSLKLLLEKKAKEVGKEA | not soluble |
| MKKTIVFKCGGSVIRELSEEFYQNLKELRASGWKLAIVHGGGPEITNMLKRLNIKTEFSGGQRKTTKPVLEVAEMVLSGSVNKFFVAELAKHGLRAAGISGKDGGLLEADYLDPETYGEVGEIKKVDASMVNALMENGIIPVIAPLSMTSDCKTLNVNADLAASAVAGALEADKLMFVTDVDGIMKEKQRLDVLTPKEIQMLIKQEVITGGMIPKVNSALSALSDQVSEVMIVNGKGSFFAEQTFQGTKIVKAKEAVS | not soluble |
| MKKTKIVALSMMNSQTSGNPSRGTTKFESYTFDYWQYIDTLVYWGGSSGEGIIVTPSADVIDEAHSNGVPVLGTIFLPPKEYGGKVDWVKTMLKKDEQGQYPFASQMVKVAKTYGFEGWFINEETQGLNADDAANMKALIQQVKKEDSSLQIMWYDAMTKDGKVDWQNQLNDQNATFVQDKAADAMFLNFWWTQNNLADQKLLEKSNLYAKNHNIDPYNIYAGIDVQAKDVQTPVKWNLLEKGNQATQTSIGLYAASATYTNASNWDDFQNRESAFWVNQKADPRQVDHSVNESWTGLSKYVLEKSAISGNEFNTNFNLGNGYNYFKAGQKISEMDWNDRSLAGILPSYRWIIDNEGKNKISPSFDFANAYNGGNSLKFMAEHLDAGKSSNITLFASDLKIAMGAKFSVSMRSDQALKVSAILELANGQKVSIAGDKSLTENWSKLEHHHHHH | not soluble |
| MKKVALVTGAGQGIGKAIALRLVKDGFAVAIADYNDATAKAVASEINQAGGHAVAVKVDVSDRDQVFAAVEQARKTLGGFDVIVNNAGVAPSTPIESITPEIVDKVYNINVKGVIWGIQAAVEAFKKEGHGGKIINACSQAGHVGNPELAVYSSSKFAVRGLTQTAARDLAPLGITVNGYCPGIVKTPMWAEIDRQVSEAAGKPLGYGTAEFAKRITLGRLSEPEDVAACVSYLASPDSDYMTGQSLLIDGGMVFN | soluble |
| MKKVLIKGAMALLLSSYSMIVSAEDKTITLMLDWFVNPNHGPVVVAQQKGYFKEEGLNITIQEPADPSMPAKLVAANNIDLAISYQTSLTIDVAAGLPLIRSATLIATPLNTLMVLDNGKINSLADLKGKKIGIAIAGNEEATIGTMLKTENVNFSDVNIINVGWALSSSLASGKVDAIWGGLRNFETNQLALEGYKAKSFFPEEHGVPSYDELVFVANAKTYDADALKKFNHAIEKATQFIVNHPEESWKTFISYAPDTLNNELNKRAWNDTLTRFALRPSAVDLQRYDRFSDFMYRHQMIKTQPKAQNFVPVL | not soluble |
| MKKYEIIFKKLEEDILKGHYQMGDYLPPEMELSQTYASSRDTVRKALQLLTKAGFIKTVQGRGSQIIKRERINFPVSQLTSYQELVKQLQMNVKTNVIAIDKLIVDEKLTKLTGFENKGLVWRITRQRVIDGVASILDTDYLDKALIPHMTREIAEHSIYDYLENQLKLDIAYAQKIITIDQVSQKDKILLDLDSENHVVSVKSKVYLSNQQQFQFTESRHKLEKFRFVDFARRHRD | not soluble |
| MKKYSFPVTYENVRFPPNGQLKLPVMPAEPFYDAEKGEKKYKSTKRMIEARGVEEVHTELIHEQYGLAAVSGGFIDSDDFKFIQDRINKNLIDNQFSVWRVDAPWLPRTKKAQGTRLGGGKGSIQKYVTPVRANRIILEVGGHITEIEAKAFLLYLCERFSFPVEFVSETMLAERRKKAEEERAMNKNGFNWGKVIKYNMQNCNSWLSSYDVAWKGKYR | not soluble |
| MKLKIVFFGASLAGKSTTVRKLYEILKEKGLVKGEFMSIDTDEKRTLFVEMFLSKIPIDGQEIDFKILTTPGQFRLHPLRKAIMQGVDGLVFTVDSQTGREEINFLVLRETAHVLKDSTWIYTQYPSLFSTTREIFPTHFPLEHHHHHH | not soluble |
| MKLLKKPAGLKKRKVISKRIKIEKKPSSEDEGSSDEEVPKLDGEGSLDGSEDEDDGTVTVEKGGVKKHKLDLEKLKQSDPEFFKFLQQEDADLLNMEDDGDDDEDDDEDDEDEEEEESDDDEDDEEDDDKTKIKKIRKPKIKSDNSGRLIVDSNVYSYLQQVLVLDDETSTPTNPSDVRMAVDVFVACVARVGADIEAPKYVINEQSIFEAVVRMCFQAMPDILKRLLKAKPEGDKVLFSKTAIKKYQTYVRTYLHAMIVFLNEVQTTEVLIATIKAMTRLVDLYAHFSRMSKLLIKAVVRIWSRKTLECRLPAFVCMNLLVKNYPQHFVPLYKTAYVAFVANSKIVTNETWPLLQFMHRTFAELTILNPEQAYKYAFVYIRQTAVHLRNAMISKGRKDLIFSIYNWQMMQCMYMWVRVIAKAHSVNGAEQIGELVYPLIQVIVGIFKLCNAPTFLPLRLHCCQLLIQLQASCTNYIPILQVSCDCLEELARELKSKPKPVKGAVKLPDIECTLKCSSQFSDLPQWRKVISEHVFRTMMQSAHLLASQAAFPDVVLPINHRISAILETMKNGDHAHLFRGFQTKLKEHSRFVLDVLARKSVDINDEMQVRAVRFDLNNHDSPIKTFYRQWEKVWKMKERSAVENSKKDDKKKKKEEEAAAAKKRKPNETVEDEDDVKPEVSKAKRKRIKIGAAAKKADASVPDQFADMSMWSDED | soluble |
